One assay has as its target mCTLA-4-Fc (R&D Systems) (mouse, UniProt P09793 36-162). Description: SPR, Fc fusion captured via anti-human IgG Fc.
Assay [1] addresses T1, human CTLA-4-Fc (Chimerigen) (human, UniProt P16410 36-161; P01857 99-330 = IgG part, limits assumed).
T1 construct: extracellular domain;domain: Fc portion; Bought protein; also called hCTLA-4-Fc; huCTLA-4-Ig
As to the kind of experiment: SPR, Fc fusion captured via anti-human IgG Fc.

Assay [2] addresses T1, human CTLA-4-Fc (Chimerigen). Description: SPR-Affinity of the monomer towards hCTLA-4-Fc.

Sequence of mCTLA-4-Fc (R&D Systems) (P09793 whole entry, the tested form may be a part): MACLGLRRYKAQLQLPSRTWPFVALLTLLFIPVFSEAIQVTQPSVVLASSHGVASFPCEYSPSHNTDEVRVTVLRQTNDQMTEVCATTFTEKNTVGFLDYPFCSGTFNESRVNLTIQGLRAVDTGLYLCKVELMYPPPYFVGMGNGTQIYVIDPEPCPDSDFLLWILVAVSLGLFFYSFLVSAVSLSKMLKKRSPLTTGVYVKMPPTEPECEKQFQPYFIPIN
T1 sequence (P16410 other isoform, or with tags, fused parts or gaps mutant limits assumed): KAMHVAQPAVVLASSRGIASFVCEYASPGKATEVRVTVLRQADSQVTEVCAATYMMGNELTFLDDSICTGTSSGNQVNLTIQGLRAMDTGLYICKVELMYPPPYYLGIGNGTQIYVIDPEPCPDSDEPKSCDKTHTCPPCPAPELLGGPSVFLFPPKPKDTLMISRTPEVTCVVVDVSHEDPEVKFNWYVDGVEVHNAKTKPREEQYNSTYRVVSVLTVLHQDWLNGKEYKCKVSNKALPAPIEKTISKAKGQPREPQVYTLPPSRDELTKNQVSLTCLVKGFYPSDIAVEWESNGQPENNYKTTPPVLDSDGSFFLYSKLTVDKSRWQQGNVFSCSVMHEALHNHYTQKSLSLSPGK

B1: hNGAL mutein S67.3-C21 (designed binder)
chain: QDSTSDLIPAPPLSKVPLQQNFQDNQFHGKWYVVGLAGNYIWRNDRYPMQMYATIYELKEDKSYNVTSVIFDTKKCEYPIATFVPGSQPGEFTLGNIKSYRMDTSYLVRVVSTNYNQHAMVFFKQVNHNTEHFAITIYGRTKELASELKENFIRFSKSLGLPENHIVFPVPIDQCIDGSAWSHPQF
Consider B1, for which, in the assay with mCTLA-4-Fc (R&D Systems), binding was put at a Kd of 6800 nM, the dissociation rate constant (koff) turned out to be 0.098 s⁻¹ and the kon is 14500 M⁻¹ s⁻¹. In assay [1], this molecule showed a Kd of 20 nM, a koff of 0.00033 s⁻¹ and a kon of 16000 M⁻¹ s⁻¹.

B2: S140.4-O10 with a free cystein residue at position 87 (designed binder)
chain: QDSTSDLIPAPPLSKVPLQQNFQDNQFHGKWYVVGLAGNRILRDDQHPMNMYATIYELKEDKSYNVTSVISSHKKCEYTIATFVPGCQPGEFTLGNIKSYGDKTSYLVRVVSTDYNQYAVVFFKLAEDNAEFFAITIYGRTKELASELKENFIRFSKSLGLPENHIVFPVPIDQCIDGSAWSHPQFEK
notes: Not PEGylated; also called O10_S87C; S87C variant
In turn, B2 gave a Kd in assay [2] of 6 nM.

B3: hNGAL mutein S67.2-F03 (designed binder)
chain: QDSTSDLIPAPPLSKVPLQQNFQDNQFHGKWYVVGLAGNRILRDDQHPMNMYATIYELKEDKSYNVTSVIFPHKKCEYTIATFVPGSQPGEFTLGNIKSYGDKTSYLVRVVSTNYNQHAMVFFKLVEDNAEFFAITIYGRTKELASELKENFIRFSKSLGLPENHIVFPVPIDQCIDGSAWSHPQF
As to B3, in the assay with mCTLA-4-Fc (R&D Systems), the Kd is 198 nM, the koff stood at 0.00089 s⁻¹ and the kon was 4500 M⁻¹ s⁻¹. Moreover, in assay [1], binding was put at a Kd of 47.1 nM, the koff came out at 0.00033 s⁻¹ and the association rate constant (kon) worked out at 7030 M⁻¹ s⁻¹.

B4: hNGAL mutein S107.4-C16 (designed binder)
chain: QDSTSDLIPAPPLSKVPLQQNFQDNQFHGKWYVVGLAGNRILRDDQHPMNMYATIYELKEDKSYNVTSVIFPHKKCEYTIATFVPGSQPGEFTLGNIKSYGDKTSYLVRVVSTNYNQHAMVFFELVEDNAGFFAITIYGRTKELASELKENFIRFSKSLGLPENHIVFPVPIDQCIDGSAWSHPQF
On to B4, for which the Kd with mCTLA-4-Fc (R&D Systems) came to 275 nM; in assay [1] it was 28 nM.

B5: hNGAL mutein S106.3-O19 (designed binder)
chain: QDSTSDLIPAPPLSKVPLQQNFQDNQFHGKWYVVGLAGNRILRDDQHPMNMYATIYELKEDKSYNVTSVIFPHKKCEHTIATFVPGSQPGEFTLGNIKSYGDKTSYLVRVVSTDYNQHAMVFFELVEDNAGFFAITIYGRTKELASELKENFIRFSKSLGLPENHIVFPVPIDQCIDGSAWSHPQF
For B5, the Kd is 135 nM with mCTLA-4-Fc (R&D Systems) and 22 nM in assay [1].

B6: hNGAL mutein S106.1-N15 (designed binder)
chain: QDSTSDLIPAPPLSKVPLQQNFQDNQFHGKWYVLGLAGNRILRDDQHPMNMYATIYELKEDKSYNVTSVIFPHKKCEYTIATFVPGSQPGEFTLGNIKSYGDKTSYLVRVVSTNYNQHAMVFFKLAEDNAEFFAITIYGRTKELASELKENFIRFSKSLGLPENHIVFPVPIDQCIDGSAWSHPQF
On to B6, for which the equilibrium dissociation constant (Kd) with mCTLA-4-Fc (R&D Systems) was 110 nM; in assay [1], 43 nM.

B7: hNGAL mutein S94.2-F05 (designed binder)
chain: QDSTSDLIPAPPLSKVPLQQNFQDNQFHGKWYVVGLAGNRILRDDQHPMNMYATIYELKEDKSYNVTSVIFPHKKCEYTIATFVPGSQPGEFTLGNIKSYGDKTSYLVRVVSTNYNQYAMVFFKLAEDNAEFFAVTIYGRTKELASELKENFIRFSKSLGLPENHIVFPVPIDQCIDGSAWSHPQF
Consider B7, for which the results for the Kd (with mCTLA-4-Fc (R&D Systems); in assay [1]) were 65 nM and 18 nM, respectively.

B8: hNGAL mutein S106.3-K20 (designed binder)
chain: QDSTSDLIPAPPLSKVPLQQNFQDNQFHGKWYVVGLAGNRILRDDQHPMNMYATIYELKEDKSYNVTSVIFPHKKCEYTIATFVPGSQPGEFTLGNIKSYGDKTSYLVRVVSTNYNQHAVVFFQLVEDNAGFFAITIYGRTKELASELKENFIRFSKSLGLPENHIVFPVPIDQCIDGSAWSHPQF
On to B8, for which the Kd with mCTLA-4-Fc (R&D Systems) amounted to 300 nM; in assay [1], 29 nM.

B9: hNGAL mutein S109.4-A15 (designed binder)
chain: QDSTSDLIPAPPLSKVPLQQNFQDNQFHGKWYVVGLAGNRILRDDQHPMDMYATIYELKEDKSYNVTSVIFPHKKCEYTIATFVPGSQPGEFTLGNIKSYGDKTSYLVRVVSTNYNQHATVFFKLAEDNAEFFAITIYGRTKELASELKENFIRFSKSLGLPENHIVFPVPIDQCIDGSAWSHPQF
The molecule B9 gave a Kd in assay [1] of 26 nM.

B10: hNGAL mutein S109.5-L04 (designed binder)
chain: QDSTSDLIPAPPLSKVPLQQNFQDNQFHGKWYVVGLAGNRILRDDRHPMNMYATIYELKEDKSYNVTSVIFPHKKCEYTIATFVPGSQPGEFTLGNIKSYGDKTSYLVRVVSTNYNQHATVFFKLAEDNAEFFAITIYGRTKELASELKENFIRFSKSLGLPENHIVFPVPIDQCIDGSAWSHPQF
As to B10, the results for the Kd (in the assay with mCTLA-4-Fc (R&D Systems); in assay [1]) were 42 nM and 29 nM, respectively.

B11: hNGAL mutein S109.6-J11 (designed binder)
chain: QDSTSDLIPAPPLSKVPLQQNFQDNQFHGKWYVVGLAGNRILRDDQHPMNMYATIYELKEDKSYNVTSVIFPHKKCEYTFATFVPGSQPGEFTLGNIKSYGDKTSYLVRVVSTNYNQHATVFFKLAEDNAEFFAVTIYGRTKELASELKENFIRFSKSLGLPENHIVFPVPIDQCIDGSAWSHPQF
Consider B11, for which the Kd in the assay with mCTLA-4-Fc (R&D Systems) was 47 nM; in assay [1], 20 nM.

B12: hNGAL mutein S109.5-L23 (designed binder)
chain: QDSTSDLIPAPPLSKVPLQQNFQDNQFHGKWYVVGLAGNRILRDDQHPMNMYATIYELKEDKSYDVTSVIFPHKKCEYTTATFVPGSQPGEFTLGNIKSYGGKTSYLVRVVSTNYNQHATVFFKLAGDNAEFFAITIYGRTKELASELKENFIRFSKSLGLPENHIVFPVPIDQCIDGSAWSHPQF
The molecule B12 registered a Kd with mCTLA-4-Fc (R&D Systems) of 19 nM.

B13: S140.4-O10_A145C (designed binder)
chain: QDSTSDLIPAPPLSKVPLQQNFQDNQFHGKWYVVGLAGNRILRDDQHPMNMYATIYELKEDKSYNVTSVISSHKKCEYTIATFVPGSQPGEFTLGNIKSYGDKTSYLVRVVSTDYNQYAVVFFKLAEDNAEFFAITIYGRTKELCSELKENFIRFSKSLGLPENHIVFPVPIDQCIDG
notes: Produced from phNGAL15 without the T7 tag
In turn, B13 showed a Kd in assay [2] of 6 nM.

B14: S140.4-O10_N116 (designed binder)
chain: QDSTSDLIPAPPLSKVPLQQNFQDNQFHGKWYVVGLAGNRILRDDQHPMNMYATIYELKEDKSYNVTSVISSHKKCEYTIATFVPGSQPGEFTLGNIKSYGDKTSYLVRVVSTDYCQYAVVFFKLAEDNAEFFAITIYGRTKELASELKENFIRFSKSLGLPENHIVFPVPIDQCIDG
notes: Produced from phNGAL15 without the T7 tag; also called O10_N116C
With B14, the Kd in assay [2] came out at 10 nM.

B15: S140.4-O10_S158C (designed binder)
chain: QDSTSDLIPAPPLSKVPLQQNFQDNQFHGKWYVVGLAGNRILRDDQHPMNMYATIYELKEDKSYNVTSVISSHKKCEYTIATFVPGSQPGEFTLGNIKSYGDKTSYLVRVVSTDYNQYAVVFFKLAEDNAEFFAITIYGRTKELASELKENFIRFSKCLGLPENHIVFPVPIDQCIDG
notes: as for B13
For B15, the affinity in assay [2], expressed as Kd, was 13 nM.

B16: S140.4-O10_E60C (designed binder)
chain: QDSTSDLIPAPPLSKVPLQQNFQDNQFHGKWYVVGLAGNRILRDDQHPMNMYATIYELKCDKSYNVTSVISSHKKCEYTIATFVPGSQPGEFTLGNIKSYGDKTSYLVRVVSTDYNQYAVVFFKLAEDNAEFFAITIYGRTKELASELKENFIRFSKSLGLPENHIVFPVPIDQCIDG
notes: as for B13
In turn, B16 came in with a Kd in assay [2] of 24 nM.

B17: S140.4-O10_T141C (designed binder)
chain: QDSTSDLIPAPPLSKVPLQQNFQDNQFHGKWYVVGLAGNRILRDDQHPMNMYATIYELKEDKSYNVTSVISSHKKCEYTIATFVPGSQPGEFTLGNIKSYGDKTSYLVRVVSTDYNQYAVVFFKLAEDNAEFFAITIYGRCKELASELKENFIRFSKSLGLPENHIVFPVPIDQCIDG
notes: as for B13
B17 registered a dissociation constant Kd in assay [2] of 4 nM.

B18: S140.4-O10_E143C (designed binder)
chain: QDSTSDLIPAPPLSKVPLQQNFQDNQFHGKWYVVGLAGNRILRDDQHPMNMYATIYELKEDKSYNVTSVISSHKKCEYTIATFVPGSQPGEFTLGNIKSYGDKTSYLVRVVSTDYNQYAVVFFKLAEDNAEFFAITIYGRTKCLASELKENFIRFSKSLGLPENHIVFPVPIDQCIDG
notes: as for B13
Take B18: the equilibrium dissociation constant (Kd) in assay [2] came to 15 nM.

B19: S140.4-O10_S146C (designed binder)
chain: QDSTSDLIPAPPLSKVPLQQNFQDNQFHGKWYVVGLAGNRILRDDQHPMNMYATIYELKEDKSYNVTSVISSHKKCEYTIATFVPGSQPGEFTLGNIKSYGDKTSYLVRVVSTDYNQYAVVFFKLAEDNAEFFAITIYGRTKELACELKENFIRFSKSLGLPENHIVFPVPIDQCIDG
notes: as for B13
In assay [2], B19 had a Kd of 9 nM.

B20: S140.4-O10_N21C (designed binder)
chain: QDSTSDLIPAPPLSKVPLQQCFQDNQFHGKWYVVGLAGNRILRDDQHPMNMYATIYELKEDKSYNVTSVISSHKKCEYTIATFVPGSQPGEFTLGNIKSYGDKTSYLVRVVSTDYNQYAVVFFKLAEDNAEFFAITIYGRTKELASELKENFIRFSKSLGLPENHIVFPVPIDQCIDG
notes: as for B13
B20: in assay [2], the Kd was 32 nM.

B21: S140.4-O10_V84C (designed binder)
chain: QDSTSDLIPAPPLSKVPLQQNFQDNQFHGKWYVVGLAGNRILRDDQHPMNMYATIYELKEDKSYNVTSVISSHKKCEYTIATFCPGSQPGEFTLGNIKSYGDKTSYLVRVVSTDYNQYAVVFFKLAEDNAEFFAITIYGRTKELASELKENFIRFSKSLGLPENHIVFPVPIDQCIDG
notes: as for B13
B21 displayed a Kd in assay [2] of 15 nM.

B22: S140.4-O10_Q88C (designed binder)
chain: QDSTSDLIPAPPLSKVPLQQNFQDNQFHGKWYVVGLAGNRILRDDQHPMNMYATIYELKEDKSYNVTSVISSHKKCEYTIATFVPGSCPGEFTLGNIKSYGDKTSYLVRVVSTDYNQYAVVFFKLAEDNAEFFAITIYGRTKELASELKENFIRFSKSLGLPENHIVFPVPIDQCIDG
notes: as for B13
The molecule B22 displayed a Kd in assay [2] of 15 nM.

B23: S140.4-O10_S14C (designed binder)
chain: QDSTSDLIPAPPLCKVPLQQNFQDNQFHGKWYVVGLAGNRILRDDQHPMNMYATIYELKEDKSYNVTSVISSHKKCEYTIATFVPGSQPGEFTLGNIKSYGDKTSYLVRVVSTDYNQYAVVFFKLAEDNAEFFAITIYGRTKELASELKENFIRFSKSLGLPENHIVFPVPIDQCIDG
notes: as for B13
B23 had a Kd in assay [2] of 13 nM.

For the origin of these results see patent US20090042785A1 (Pieris, published 2009).
